The results in this text go back to IntAct's records for PubMed 16717130.

In this assay the target is git1_human GIT1 (UniProt Q9Y2X7).
Sequence of git1_human GIT1 (Q9Y2X7 whole entry): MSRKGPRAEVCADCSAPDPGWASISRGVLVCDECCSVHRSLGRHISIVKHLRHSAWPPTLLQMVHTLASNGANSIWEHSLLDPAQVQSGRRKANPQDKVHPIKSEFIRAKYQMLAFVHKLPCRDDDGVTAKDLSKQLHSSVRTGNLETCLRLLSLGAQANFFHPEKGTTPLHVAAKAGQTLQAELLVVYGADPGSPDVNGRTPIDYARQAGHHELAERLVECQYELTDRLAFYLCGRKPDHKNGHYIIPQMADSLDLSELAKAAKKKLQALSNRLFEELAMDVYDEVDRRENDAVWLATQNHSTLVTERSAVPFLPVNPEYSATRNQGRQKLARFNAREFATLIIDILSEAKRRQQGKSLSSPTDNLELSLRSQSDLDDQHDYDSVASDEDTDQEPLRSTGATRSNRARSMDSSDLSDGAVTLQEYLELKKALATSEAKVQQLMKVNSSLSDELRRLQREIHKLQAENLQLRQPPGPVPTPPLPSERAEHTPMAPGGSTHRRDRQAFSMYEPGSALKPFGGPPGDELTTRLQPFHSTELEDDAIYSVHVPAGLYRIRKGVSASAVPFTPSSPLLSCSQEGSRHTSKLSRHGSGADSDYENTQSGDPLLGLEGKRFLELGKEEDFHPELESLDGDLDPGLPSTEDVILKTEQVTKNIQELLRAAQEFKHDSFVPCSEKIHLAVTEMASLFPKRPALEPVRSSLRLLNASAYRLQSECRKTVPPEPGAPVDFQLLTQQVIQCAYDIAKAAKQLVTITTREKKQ

Sequence of Paxillin (Gallus gallus (Chicken)), P49024 S273D (P49024 whole entry S273D): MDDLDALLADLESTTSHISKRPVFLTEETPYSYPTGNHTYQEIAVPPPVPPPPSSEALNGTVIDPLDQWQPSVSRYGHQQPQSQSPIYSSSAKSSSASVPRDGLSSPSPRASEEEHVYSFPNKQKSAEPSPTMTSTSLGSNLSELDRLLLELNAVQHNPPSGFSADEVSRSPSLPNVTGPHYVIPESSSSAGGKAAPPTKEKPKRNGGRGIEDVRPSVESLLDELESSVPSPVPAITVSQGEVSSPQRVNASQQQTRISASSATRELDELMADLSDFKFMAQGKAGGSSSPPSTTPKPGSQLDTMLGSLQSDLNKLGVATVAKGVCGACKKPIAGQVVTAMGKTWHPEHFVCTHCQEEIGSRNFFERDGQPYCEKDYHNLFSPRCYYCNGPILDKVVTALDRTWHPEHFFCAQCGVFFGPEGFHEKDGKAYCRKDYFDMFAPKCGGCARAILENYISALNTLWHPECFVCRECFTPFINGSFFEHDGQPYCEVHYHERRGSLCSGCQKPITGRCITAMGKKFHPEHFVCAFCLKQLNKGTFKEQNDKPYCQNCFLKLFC
Sequence of Paxillin (Gallus gallus (Chicken)), P49024 S273A (P49024 whole entry S273A): as the sequence (P49024 whole entry S273D) above, with D273A counted along it

For the substance “Paxillin (Gallus gallus (Chicken)), P49024 S273A”, the “effect of a mutation on the interaction” value was “decreasing interaction”.
The entry for “Paxillin (Gallus gallus (Chicken)), P49024 S273D” is “increasing interaction”.
